± gives the standard error. For some of these results: Variants at the floor of the assay were thinned out.
B1: glmS ribozyme (parent)
chain: AUAAAAGCGCCAGAACUACAGAAAUGUAGUUGACGAGGAGGAGGUUUAUCGAAUUUUCGGCGGAUGCCUCCAAA

Key:
Settings in all cases: with glucosamine-6-phosphate
[1] = variants of: B1; test: kcat; higher = faster cleavage; RNA array
Method in brief: (§1)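 On sequenced MiSeq chips, barcoded ribozyme variants were made in situ by E. coli RNA polymerase and followed at 37 °C through a hybridised Cy3 probe. Glucosamine-6-phosphate was flowed in at 40 μM to 10 mM in HEPES/KCl/Mg(OAc)2 buffer. Exponential fits to normalised per-tile medians gave kobs, and weighted Michaelis–Menten fits gave kcat and KM.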

[2] = variants of: B1; test: self-cleavage kobs at 40 uM GlcN6P; higher = faster cleavage; RNA array
Method in brief: as §1

[3] = variants of: B1; test: self-cleavage kobs at 640 uM GlcN6P; higher = faster cleavage; RNA array
Method in brief: as §1

[4] = variants of: B1; test: self-cleavage kobs at 2500 uM GlcN6P; higher = faster cleavage; RNA array
Method in brief: as §1

[5] = variants of: B1; test: self-cleavage kobs at 10000 uM GlcN6P; higher = faster cleavage; RNA array
Method in brief: as §1

[6] = variants of: B1; test: KM; higher = weaker cofactor use; RNA array
Method in brief: as §1

[7] = variants of: B1; test: self-cleavage kobs at 160 uM GlcN6P; higher = faster cleavage; RNA array
Method in brief: as §1

AUAAAAGCGCCAGAACUACAGAAAUGUAGUUGACGAGGAGGAGGUUUAUCGAAGUAUCGGCGGAUGCCGCCAAA [U54G U56A U69G]
kcat [1]: 5.38e-05 ± 1.1e-05 s⁻¹
self-cleavage kobs at 40 uM GlcN6P [2]: 4.11e-05 ± 1.9e-05 s⁻¹
self-cleavage kobs at 640 uM GlcN6P [3]: 7.97e-05 ± 1.8e-05 s⁻¹
self-cleavage kobs at 2500 uM GlcN6P [4]: 4.21e-05 ± 1.1e-05 s⁻¹
self-cleavage kobs at 10000 uM GlcN6P [5]: 6e-05 ± 1.8e-05 s⁻¹

AUAAAAGCGCCAGAACUACAGAAAUGUAGAUGACGAGGAGGAGGUUUAUCGAAUUUUUGGCGGAUGCCUCCAAA [U30A C58U]
kcat [1]: 1.78e-05 ± 3.6e-06 s⁻¹

AUAAAAGCGCCAGGACUACAGAAAUGUAGUUUACGAGGAGGAGGUUUAUCGAAUUUUCGGCGGAUGCCUCCAAA [A14G G32U]
kcat [1]: 0.00512 ± 0.001 s⁻¹
KM [6]: 5710 ± 1400 µM
self-cleavage kobs at 40 uM GlcN6P [2]: 4.82e-05 ± 7.9e-06 s⁻¹
self-cleavage kobs at 160 uM GlcN6P [7]: 0.000137 ± 1.8e-05 s⁻¹
self-cleavage kobs at 640 uM GlcN6P [3]: 0.000476 ± 5.1e-05 s⁻¹
self-cleavage kobs at 2500 uM GlcN6P [4]: 0.00158 ± 0.00017 s⁻¹
self-cleavage kobs at 10000 uM GlcN6P [5]: 0.00329 ± 0.0004 s⁻¹

AUAAAAGCGCCAGAACUACAGAAAUGUAGUUAACGAGGAGGAGGUUUAUCGAAUUUUCGGCGGAUCCCUCCAAA [G32A G66C]
kcat [1]: 5.52e-05 ± 1.5e-06 s⁻¹
KM [6]: 1250 ± 160 µM
self-cleavage kobs at 2500 uM GlcN6P [4]: 3.72e-05 ± 1.6e-05 s⁻¹
self-cleavage kobs at 10000 uM GlcN6P [5]: 4.9e-05 ± 1.4e-05 s⁻¹

AUAAAAGCGCAAGACCUACAGAAAUGUAGUUGACGAGGAGGAGGUUUAUCGAAUUUUCGGCGGAUGCCUCCAAA [C11A A15C]
kcat [1]: 7.9e-05 ± 2.8e-05 s⁻¹
self-cleavage kobs at 2500 uM GlcN6P [4]: 8.45e-05 ± 1.9e-05 s⁻¹
self-cleavage kobs at 10000 uM GlcN6P [5]: 5.67e-05 ± 2.2e-05 s⁻¹

AUAAAAGCGCCAGAACUACAGAAAUGUAGUUGACGAGGACGGGGUUUAUCGAAUUUUCGGCGGAUGCCUCCAAA [G40C A42G]
kcat [1]: 0.00319 ± 0.00048 s⁻¹
KM [6]: 1060 ± 250 µM
self-cleavage kobs at 40 uM GlcN6P [2]: 0.000131 ± 2.4e-05 s⁻¹
self-cleavage kobs at 160 uM GlcN6P [7]: 0.000438 ± 0.00016 s⁻¹
self-cleavage kobs at 640 uM GlcN6P [3]: 0.000898 ± 0.00025 s⁻¹
self-cleavage kobs at 2500 uM GlcN6P [4]: 0.0025 ± 0.0006 s⁻¹
self-cleavage kobs at 10000 uM GlcN6P [5]: 0.00299 ± 0.00053 s⁻¹

AUAAAAGCGCCAGAACUACAGAAAUGUAGUUGACGAGGAGGAGGUUUAUCGAAUUUUCGGCGGAUGCCAUCAAA [U69A C70U]
kcat [1]: 6.79e-05 ± 5.4e-06 s⁻¹
self-cleavage kobs at 160 uM GlcN6P [7]: 3.52e-05 ± 1e-05 s⁻¹
self-cleavage kobs at 640 uM GlcN6P [3]: 4.97e-05 ± 8.2e-06 s⁻¹
self-cleavage kobs at 2500 uM GlcN6P [4]: 7.15e-05 ± 7.1e-06 s⁻¹
self-cleavage kobs at 10000 uM GlcN6P [5]: 6.03e-05 ± 7.8e-06 s⁻¹

AUAAAAGCGCCAGAACUACAGAAAUGUAGUUGACGAGGAGGAGGUUUAUCGAAUUUUCUGCGGAUGCCUUCAAA [G59U C70U]
kcat [1]: 9.84e-05 ± 6.1e-06 s⁻¹
KM [6]: 899 ± 210 µM
self-cleavage kobs at 640 uM GlcN6P [3]: 4.56e-05 ± 9.2e-06 s⁻¹
self-cleavage kobs at 2500 uM GlcN6P [4]: 6.69e-05 ± 8.1e-06 s⁻¹
self-cleavage kobs at 10000 uM GlcN6P [5]: 9.36e-05 ± 8.8e-06 s⁻¹

Reference: the supplement of paper PMC7125110
